The results in this text go back to patent publication US20200071380A1, “COMBINATION THERAPIES COMPRISING SIRP ALPHA-BASED CHIMERIC PROTEINS” (Shattuck Labs, Inc., priority 2018, published 2020).

Test [1] deals with macrophages co-cultured with Toledo lymphoma cells. Kind of test: qRT-PCR of macrophages sorted from Toledo lymphoma co-cultures. In kind it is cell-based, human. To be noted: qRT-PCR on macrophages isolated by FACS from Toledo co-cultures. As for the experimental part:
FIG. 8D: Macrophage:Toledo lymphoma co-cultures were harvested 2 hours into phagocytosis assays in the presence of rituximab ([…]), SIRPα-Fc-CD40L ([…]), or the combination of both agents. Macrophages were isolated by CD11b+FACS, RNA was prepared, cDNA synthesized, and gene expression (IFNa1, IFNb1, CD80, and CD86) assessed by qRT-PCR. Fold change was calculated using DDCT and values obtained from the housekeeping gene ACTB, and the corresponding values from untreated samples. […] After 2 hours, co-cultures were isolated from tissue culture vessels and were stained with a fluorescently conjugated CD11b antibody to discriminate macrophages. Cells were then assessed by flow cytometry for the co-localization of fluorescent signal from both cells types. […] After 24-hours type I interferon induced luminescence was assessed using a luminometer. The maximum luminescence (RLU) from each experiment was set to 1, and all other samples were normalized accordingly. […]
RNA was prepared from macrophages isolated using fluorescent activated cell sorting (FACS) from SIRPα-Fc-CD40L/Rituximab treated co-cultures macrophages and Toledo lymphoma cells. The RNA was assessed by gRT-PCR for expression of IFNα1 and IFNβ1, and the macrophage activation markers CD80 and CD86.
Background: Quantitative PCR measures a nucleic acid by following its amplification.

The target in test [2] is recombinant human CD40 (human) (UniProt P25942). In words: SPR.
A further test has as its target FcγR-Ia (Homo sapiens, UniProt P12314). Kind of test: SPR.
Another test concerns tumors. Kind of test: Mouse tumor model, SIRPα-Fc-OX40L and checkpoint antibodies (Example 14).
For a further test, the target named is T1, recombinant mouse CD47 (mouse, UniProt Q61735 19-140, limits assumed).
T1 construct: also called murine CD47
T1 sequence (looked up): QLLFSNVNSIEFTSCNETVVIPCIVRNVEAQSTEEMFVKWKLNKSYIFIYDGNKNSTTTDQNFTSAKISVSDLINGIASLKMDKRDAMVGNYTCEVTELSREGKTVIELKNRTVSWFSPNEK
In words: dual ELISA: coat mCD47-Fc, titrated mSIRPα-Fc-CD40L, detect mCD40-His, tertiary anti-his-HRP, OD450. Signal needs both CD47 and CD40 to be bound. (In an ELISA, binding on a coated surface is turned into a signal by an enzyme label.)

The target of a further test is T2, recombinant mouse CD40 (mouse, UniProt P27512 20-193, limits assumed).
T2 construct: also called murine CD40
In words: dual ELISA: coat mCD47-Fc, titrated mSIRPα-Fc-CD40L, detect mCD40-His, tertiary anti-his-HRP, OD450. This is the same curve as the CD47 row. mCD40-His is the detecting receptor.

Where “and” joins values, the source holds several entries; their conditions need not be identical. Equal entries are not always repeated.

FcγR-Ia, sequence (P12314 16-288 limits assumed): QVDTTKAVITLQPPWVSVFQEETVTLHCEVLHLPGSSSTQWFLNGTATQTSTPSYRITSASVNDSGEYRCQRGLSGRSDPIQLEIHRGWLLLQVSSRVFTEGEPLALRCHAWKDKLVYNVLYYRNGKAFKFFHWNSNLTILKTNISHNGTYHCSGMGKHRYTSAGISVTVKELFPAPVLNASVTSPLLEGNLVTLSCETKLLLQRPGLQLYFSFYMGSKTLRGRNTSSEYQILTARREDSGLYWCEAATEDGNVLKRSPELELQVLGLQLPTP
recombinant human CD40 (human), sequence (P25942 21-193 limits assumed): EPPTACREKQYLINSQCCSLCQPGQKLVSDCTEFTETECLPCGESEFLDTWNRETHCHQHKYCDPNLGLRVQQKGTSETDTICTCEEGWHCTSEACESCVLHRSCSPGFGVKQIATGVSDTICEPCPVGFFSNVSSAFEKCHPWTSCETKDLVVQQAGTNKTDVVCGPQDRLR
T2 sequence (P27512 20-193 limits assumed): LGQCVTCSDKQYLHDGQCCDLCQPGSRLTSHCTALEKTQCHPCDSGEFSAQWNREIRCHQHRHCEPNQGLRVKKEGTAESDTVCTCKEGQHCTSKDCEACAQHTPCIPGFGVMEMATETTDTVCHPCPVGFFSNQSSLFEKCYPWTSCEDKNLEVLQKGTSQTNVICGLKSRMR

In the case of “rituximab: anti-CD20 antibody [reference compound]”, the “macrophage activation (CD80, CD86) and expression of type I interferon genes (IFNα1, IFNβ1)” value in test [1] is “induced macrophage activation and the expression of type I interferon genes”.

A word on the Kd: it is a measure of binding affinity in units of concentration. In general, koff refers to the first-order rate constant of dissociation. The kon is the second-order rate constant of association. For Fc-CD40L (Fc fusion), in test [2], the Kd was determined as 1.15 nM, the koff was found to be 0.000351 s⁻¹ and the kon was 304000 M⁻¹ s⁻¹.

Turning to IgG1 (antibody), in the test with FcγR-Ia, the Kd amounted to 8.42 nM, the koff was determined as 0.000156 s⁻¹ and the kon is 18400 M⁻¹ s⁻¹.

On to “SIRPα(CD172a)-Fc-OX40L: Chimeric protein: ECD of SIRPα and ECD of OX40L fused via an antibody Fc domain (human sequence SEQ ID NO: 61)”, for which the tumor size result in the test with tumors (mouse, in vivo) is on record as “effective in reducing tumor size”. In the test on tumors (sixteenth day following treatment), the survival result is “had any survivors by the sixteenth day following treatment”.

B1: murine SIRPα-Fc-CD40L chimeric protein (Fc fusion)
chain: KELKVTQPEKSVSVAAGDSTVLNCTLTSLLPVGPIRWYRGVGPSRLLIYSFAGEYVPRIRNVSDTTKRNNMDFSIRISNVTPADAGIYYCVKFQKGSSEPDTEIQSGGGTEVYVLAKPSPPEVSGPADRGIPDQKVNFTCKSHGFSPRNITLKWFKDGQELHPLETTVNPSGKNVSYNISSTVRVVLNSMDVNSKVICEVAHITLDRSPLRGIANLSNFIRVSPTVKVTQQSPTSMNQVNLTCRAERFYPEDLQLIWLENGNVSRNDTPKNLTKNTDGTYNYTSLFLVNSSAHREDVVFTCQVKHDQQPAITRNHTVLGFAHSSDQGSMQTFPDNNATHNWNHRRLDKVEEEVNLHEDFVFIKKLKRCNKGEGSLSLLNCEEMRRQFEDLVKDITLNKEEKKENSFEMQRGDEDPQIAAHVVSEANSNAASVLQWAKKGYYTMKSNLVMLENGKQLTVKREGLYYVYTQVTFCSNREPSSQRPFIVGLWLKPSSGSERILLKAANTHSSSQLCEQQSVHLGGVFELQAGASVFVNVTEASQVIHRVGFSSFGLLKL
One may read the EC50 as the concentration giving half of the maximal effect. On to B1, for which the EC50 with recombinant mouse CD47 is 7.37 nM and 8.73 nM; in the test with recombinant mouse CD40, 7.37 nM and 8.73 nM.
